Test results: paper PMC4430413

Molecular target: monomeric Uox conjugated to HSA (HSA-conjugated Uox-W160.174AzF subunit of Uox-HSA) (Aspergillus flavus | human) (UniProt P02768)
Test: co-purification by ion exchange chromatography, read by SDS-PAGE

Sequence of UniProt P02768 (P02768 whole entry, looked up): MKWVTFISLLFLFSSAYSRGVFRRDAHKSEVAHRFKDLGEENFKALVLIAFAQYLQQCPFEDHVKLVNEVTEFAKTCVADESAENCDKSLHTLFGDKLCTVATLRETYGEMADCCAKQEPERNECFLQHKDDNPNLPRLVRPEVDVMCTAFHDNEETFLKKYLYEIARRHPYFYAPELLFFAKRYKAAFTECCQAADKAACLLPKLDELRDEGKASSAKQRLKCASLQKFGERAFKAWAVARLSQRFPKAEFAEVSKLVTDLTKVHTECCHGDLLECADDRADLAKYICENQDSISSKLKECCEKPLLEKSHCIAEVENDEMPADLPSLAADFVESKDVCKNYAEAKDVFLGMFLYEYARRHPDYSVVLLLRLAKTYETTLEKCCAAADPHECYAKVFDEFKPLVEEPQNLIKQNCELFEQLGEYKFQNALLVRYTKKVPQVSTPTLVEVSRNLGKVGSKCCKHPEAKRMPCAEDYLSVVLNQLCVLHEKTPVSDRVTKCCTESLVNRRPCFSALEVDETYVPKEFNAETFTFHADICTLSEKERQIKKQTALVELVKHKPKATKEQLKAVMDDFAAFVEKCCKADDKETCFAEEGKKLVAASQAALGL

In the case of “AzF-incorporated urate oxidase (Uox-W160.174AzF) (enzyme)”, the molar ratio of unreacted Uox monomer to monomeric Uox conjugated to HSA is reported as 2.5.
